Measured values: patent publication US5688671A, “Mutant aspartokinase gene” (Ajinomoto Co., Inc., priority 1993, dated 1997)
Residue numbers refer to the chain shown, from its start.

Key:
[1] = system: Corynebacterium glutamicum (Brevibacterium lactofermentum) AJ12036; test: L-lysine productivity evaluated by cultivation in production medium; type: cell-based; details: plasmids introduced into AJ12036; cultivation as in Example 3
Protocol: The lysine productivity was evaluated by cultivation for the wild type strain AJ12036, the wild type AK plasmid-harboring strain AJ12690, and the mutant AK plasmid-harboring strain AJ12691 (FERM P-12918). The evaluation by cultivation was performed by inoculating the strains to a production medium (containing glucose 100 g, (NH4)2 SO4 55 g, KH2 PO4 1 g, MgSO4.7H2 O 1 g, soybean protein acid hydrolysate "Mamenou" (product of Ajinomoto Co., Ltd., trade name) 50 ml, FeSO4.7H2 O 10 mg, MnSO4.4H2 O 10 mg, nicotinic acid amide 5 mg, and CaCO3 50 g in 1 l of pure water, pH 8.0), and cultivating them with reciprocatory shaking at 31.5° C. for 72 hours. […] The plasmid-holding ratio upon completion of the cultivation was measured by using an index of chloramphenicol resistance as a drug resistance marker of the plasmid.
The lysine productivity was further evaluated by cultivation for the 9 kinds of these strains by using a method similar to that in Example 3.

aspartokinase = test: Aspartokinase (AK) activity of cell-disrupted solutions of Corynebacterium glutamicum strains, with and without L-lysine/L-threonine; type: biochemical, Corynebacterium glutamicum (Brevibacterium lactofermentum); details: plasmids introduced into AJ12036; for 2 mM Lys + Thr (desensitization degree of inhibition): 2 mM lysine + threonine; for 5 mM Lys (desensitization degree of inhibition): lysine 5 mM; for Specific activity: Table 5; for 5 mM Thr (desensitization degree of inhibition): threonine 5 mM
Description: When a wild type strain is used as a donor for the DNA fragment containing the AK gene, a DNA fragment containing a wild type AK gene can be obtained. The DNA fragment containing the gene for AK in which synergistic feedback inhibition by L-lysine and L-threonine is substantially desensitized can be obtained by using a mutant strain in which synergistic feedback inhibition on the AK activity by L-lysine and L-threonine is substantially desensitized. The mutant strain can be obtained, for example, from a group of cells subjected to an ordinary mutation treatment, ultraviolet light irradiation, or a treatment with a mutating agent such as N-methyl-N'-nitro-N-nitrosoguanidine (NTG). The AK activity can be measured by using a method described in Miyajima, R. et al., The Journal of Biochemistry (1968), 63(2), 139-148.
Strains were prepared by introducing the wild type AK plasmid p399AKYB and the mutant AK plasmid p399AK9B respectively into AJ12036 strain (FERM P-7559) as a wild type strain of Corynebacterium glutamicum (Brevibacterium lactofermentum). The genes were introduced into Corynebacterium by means of an electric pulse method. The aspartokinase activity was measured for Corynebacterium glutamicum (Brevibacterium lactofermentum) AJ12036 strain as a host, AJ12690 strain harboring the wild type AK plasmid, and AJ12691 (FERM P12918) strain harboring the mutant AK plasmid. The activity was measured in accordance with an ordinary method (see Miyajima, R. et al., The Journal of Biochemistry (1968) 63(2), 139-148). […]
Strains were prepared by introducing 8 kinds of the plasmids shown in Table 3 into AJ12036 strain (FERM P-7559) as a wild type strain of Corynebacterium glutamicum (Brevibacterium lactofermentum) in the same manner as Example 3. The AK activity was measured for each of the strains. […] The desensitization degree of inhibition by lysine and/or threonine was similar to those in Example 6.

AK [2] = test: Thermal stability of AK, treatment at 55° C. for 1.5 hour; type: biochemical, Corynebacterium glutamicum; details: FIG. 6
Protocol: The activity-holding ratio after a treatment at 55° C. for 90 minutes is indicated by %.
Thermal stability was investigated as an index of stability of the enzyme structure constructed by the introduction of mutation. The treatment condition was set at 55° C. for 1.5 hour in which the activity of the wild type AK was about 80%.

AK [3] = test: AK enzyme activity and inhibition by lysine/threonine in cell-free extracts of AK-deficient Escherichia coli Gif106M1 transformants; type: biochemical, Corynebacterium glutamicum; details: for Specific activity / inhibition by lysine alone as compared with the wild type: E. coli Gif106M1 cell-free extracts; for Specific activity: Table 4; for 5 mM Lys + Thr (degree of desensitization of inhibition, activity-holding ratio): lysine 5 mM+threonine 5 mM; for 5 mM Lys + Thr (degree of desensitization of inhibition, activity-holding ratio) / 5 mM Lys (degree of desensitization of inhibition, activity-holding ratio) / 5 mM Thr (degree of desensitization of inhibition, activity-holding ratio): activity without addition = 100%, E. coli Gif106M1 extracts; for 5 mM Lys (degree of desensitization of inhibition, activity-holding ratio): lysine 5 mM; for 5 mM Thr (degree of desensitization of inhibition, activity-holding ratio): threonine 5 mM
Description: Bacteriol. 112, 84-92 (1972), Theze, J. et al., J. […] It is known that most of genes of bacteria belonging to the genus Corynebacterium are expressed in Escherichia coli. In addition, the AK gene was ligated at a position downstream from lac promoter on pHSG399. Thus it was postulated that the gene could be expressed in Escherichia coli. […] Thus it was confirmed that AK from the bacteria belonging to the genus Corynebacterium was expressed and operated in cells of Escherichia coli. Subsequently, cell-free extracts were prepared from bacterial cells, and the enzyme activity of AK was measured. Upon measurement of the enzyme activity of AK, various concentrations of lysine and threonine were added to enzyme reaction solutions to investigate the degree of inhibition (FIG. 2). […] (Ki value: 0.4 mM→5.0 mM). […] Cell-free extracts were prepared, and enzymes were analyzed.

B1: Val: mutant aspartokinase 279 Ala→Val, plasmid p399AKAV (p399AKAVB) (protein, UniProt P26512 1-421, looked up, variant A279V)
Aspartokinase: MALVVQKYGGSSLESAERIRNVAERIVATKKAGNDVVVVCSAMGDTTDELLELAAAVNPVPPAREMDMLLTAGERISNALVAMAIESLGAEAQSFTGSQAGVLTTERHGNARIVDVTPGRVREALDEGKICIVAGFQGVNKETRDVTTLGRGGSDTTAVALAAALNADVCEIYSDVDGVYTADPRIVPNAQKLEKLSFEEMLELAAVGSKILVLRSVEYARAFNVPLRVRSSYSNDPGTLIAGSMEDIPVEEAVLTGVATDKSEAKVTVLGISDKPGEVAKVFRALADAEINIDMVLQNVSSVEDGTTDITFTCPRSDGRRAMEILKKLQVQGNWTNVLYDDQVGKVSLVGAGMKSHPGVTAEFMEALRDVNVNIELISTSEIRISVLIREDDLDAAARALHEQFQLGGEDEAVVYAGTGR
Lys--HCl [1]: 25.02 g/L
2 mM Lys + Thr (desensitization degree of inhibition) (aspartokinase): 75.5%
5 mM Lys (desensitization degree of inhibition) (aspartokinase): 60.5%
Specific activity (aspartokinase): 448.9 mU/mg protein
5 mM Thr (desensitization degree of inhibition) (aspartokinase): 103.5%
thermal stability compared with the wild type (AK [2]): highest stability
Specific activity (AK [3]): 21.8 mU/mg protein
5 mM Lys + Thr (degree of desensitization of inhibition, activity-holding ratio) (AK [3]): 52.3%
5 mM Lys (degree of desensitization of inhibition, activity-holding ratio) (AK [3]): 51.1%
5 mM Thr (degree of desensitization of inhibition, activity-holding ratio) (AK [3]): 98.3%

B2: Phe: mutant aspartokinase 279 Ala→Phe, plasmid p399AKAF (p399AKAFB) (protein, UniProt P26512 1-421, looked up, variant A279F)
Aspartokinase: B1 Aspartokinase with V279F
Lys--HCl [1]: 25.14 g/L
2 mM Lys + Thr (desensitization degree of inhibition) (aspartokinase): 32.4%
5 mM Lys (desensitization degree of inhibition) (aspartokinase): 14.6%
Specific activity (aspartokinase): 447.7 mU/mg protein
5 mM Thr (desensitization degree of inhibition) (aspartokinase): 105.0%
thermal stability compared with the wild type (AK [2]): higher stability than that of the wild type
inhibition by lysine alone as compared with the wild type (AK [3]): enhanced
Specific activity (AK [3]): 18.7 mU/mg protein
5 mM Lys + Thr (degree of desensitization of inhibition, activity-holding ratio) (AK [3]): 18.2%
5 mM Lys (degree of desensitization of inhibition, activity-holding ratio) (AK [3]): 12.1%
5 mM Thr (degree of desensitization of inhibition, activity-holding ratio) (AK [3]): 103.0%

B3: Tyr: mutant aspartokinase 279 Ala→Tyr, plasmid p399AKAY (p399AKAYB) (protein, UniProt P26512 1-421, looked up, variant A279Y)
Aspartokinase: B1 Aspartokinase with V279Y
Lys--HCl [1]: 25.12 g/L
2 mM Lys + Thr (desensitization degree of inhibition) (aspartokinase): 32.2%
5 mM Lys (desensitization degree of inhibition) (aspartokinase): 16.1%
Specific activity (aspartokinase): 425.6 mU/mg protein
5 mM Thr (desensitization degree of inhibition) (aspartokinase): 104.8%
thermal stability compared with the wild type (AK [2]): higher stability than that of the wild type
inhibition by lysine alone as compared with the wild type (AK [3]): enhanced
Specific activity (AK [3]): 14.4 mU/mg protein
5 mM Lys + Thr (degree of desensitization of inhibition, activity-holding ratio) (AK [3]): 19.4%
5 mM Lys (degree of desensitization of inhibition, activity-holding ratio) (AK [3]): 14.4%
5 mM Thr (degree of desensitization of inhibition, activity-holding ratio) (AK [3]): 103.6%
